Consider 5 molecules from PMC4725248, “Yeast mitochondrial HMG proteins”.

The target in data set [1] is T1, CpGcf1p (CpGcf1noMP) (Candida parapsilosis CBS604) (UniProt G8BDQ3).
T1 sequence: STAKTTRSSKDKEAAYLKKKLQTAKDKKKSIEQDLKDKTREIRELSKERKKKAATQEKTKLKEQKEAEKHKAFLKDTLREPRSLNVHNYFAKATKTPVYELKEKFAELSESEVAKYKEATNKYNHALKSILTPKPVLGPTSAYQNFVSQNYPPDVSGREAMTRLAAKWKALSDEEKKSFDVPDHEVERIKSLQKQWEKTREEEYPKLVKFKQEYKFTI
Kind of data set: EMSA. Particulars: EMSA: 20 mM Tris/HCl pH 7.5, 1 mM EDTA, 50 mM NaCl, 100 ug/ml BSA, 3 nM DNA, 10 min 30 C, gel 0.5x TBE 4 C, EM: 20 mM HEPES pH 7.5, 1 mM EDTA, room ….

The target in data set [2] is T2, ScAbf2p (ScAbf2noMP) (Saccharomyces cerevisiae) (UniProt Q02486).
T2 sequence: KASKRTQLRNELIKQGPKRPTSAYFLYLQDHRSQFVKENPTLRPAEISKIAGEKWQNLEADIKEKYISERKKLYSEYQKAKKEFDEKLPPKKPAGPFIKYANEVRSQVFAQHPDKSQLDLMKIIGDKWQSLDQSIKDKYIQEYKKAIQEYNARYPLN
Description: EMSA. The conditions noted are these: EMSA: 20 mM Tris/HCl pH 7.5, 1 mM EDTA, 50 mM NaCl, 100 ug/ml BSA, 3 nM DNA, 10 min 30 C, gel 0.5x TBE 4 C, EM: 20 mM HEPES pH 7.5, 1 mM EDTA, room …. In general terms: A gel shift assay detects complexes by their altered migration in electrophoresis.

The target in data set [3] is T3, CpGcf1p (CpGcf1noMP) (Candida parapsilosis CBS604, UniProt G8BDQ3 34-251).
T3 sequence: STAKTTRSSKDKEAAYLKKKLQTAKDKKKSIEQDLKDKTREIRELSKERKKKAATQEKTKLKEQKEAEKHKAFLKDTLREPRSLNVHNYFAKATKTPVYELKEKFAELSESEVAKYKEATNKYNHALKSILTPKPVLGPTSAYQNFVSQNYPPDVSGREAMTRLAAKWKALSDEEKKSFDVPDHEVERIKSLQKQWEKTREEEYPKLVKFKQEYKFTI
Kind of data set: EMSA. The conditions noted are these: 120 nM protein, EMSA: 20 mM Tris/HCl pH 7.5, 1 mM EDTA, 50 mM NaCl, 100 ug/ml BSA, 3 nM DNA, 10 min 30 C, gel 0.5x TBE 4 C, EM: 20 mM HEPES pH 7.5, 1 mM EDTA, room ….

Data set [4] has as its target T4, ScAbf2p (ScAbf2noMP) (Saccharomyces cerevisiae, UniProt Q02486 27-183).
T4 sequence: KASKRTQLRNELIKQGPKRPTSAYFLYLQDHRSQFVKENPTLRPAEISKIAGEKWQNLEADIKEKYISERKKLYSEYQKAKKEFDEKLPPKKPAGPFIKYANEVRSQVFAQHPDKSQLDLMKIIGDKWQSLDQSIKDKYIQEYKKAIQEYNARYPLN
Kind of data set: EMSA. The conditions noted are these: 50% shift, 3 nM probe, EMSA: 20 mM Tris/HCl pH 7.5, 1 mM EDTA, 50 mM NaCl, 100 ug/ml BSA, 3 nM DNA, 10 min 30 C, gel 0.5x TBE 4 C, EM: 20 mM HEPES pH 7.5, 1 mM EDTA, room ….

The subject of data set [5] is YlMhb1p (YlMhb1noMP) (Yarrowia lipolytica). Description: EMSA. Particulars: 50% shift, 3 nM probe, EMSA: 20 mM Tris/HCl pH 7.5, 1 mM EDTA, 50 mM NaCl, 100 ug/ml BSA, 3 nM DNA, 10 min 30 C, gel 0.5x TBE 4 C, EM: 20 mM HEPES pH 7.5, 1 mM EDTA, room ….
Data set [6] addresses T4, ScAbf2p (ScAbf2noMP). Kind of data set: EMSA; EMSA: 20 mM Tris/HCl pH 7.5, 1 mM EDTA, 50 mM NaCl, 100 ug/ml BSA, 3 nM DNA, 10 min 30 C, gel 0.5x TBE 4 C; EM: 20 mM HEPES pH 7.5, 1 mM EDTA, 50 mM NaCl, room. Particulars: protein: recombinant; tags: GST removed with PreScission protease (pGEX-6P-2); label: 32P, 5' end of S6; blunt.
Data set [7] addresses T3, CpGcf1p (CpGcf1noMP). The data set is described as above. The conditions noted are these: protein: recombinant, tags: GST removed with PreScission protease (pGEX-6P-2), label: 32P, blunt.
In data set [8] the target is T4, ScAbf2p (ScAbf2noMP). Description: EMSA; almost quantitative shift; EMSA: 20 mM Tris/HCl pH 7.5, 1 mM EDTA, 50 mM NaCl, 100 ug/ml BSA, 3 nM DNA, 10 min 30 C, gel 0.5x TBE 4 C; EM: 20 mM HEPES pH 7.5, 1 mM EDTA, 50 mM NaCl, room. The conditions noted are these: protein: recombinant; tags: GST removed with PreScission protease (pGEX-6P-2); label: 32P, 5' end of S8; blunt.

For “ACACCATTAATTAAAGCTGCGAATACGATAGCAATACCAATACCTGCTCC (double strand) [50 bp atp9 dsDNA]”, the binding result in data set [1] and in data set [2] was “binds” throughout. Holliday junction (HJ) showed a binding signal (fold higher than 3' Flap) in the data set with CpGcf1p (CpGcf1noMP) [3] of 8. On to fluorescent dsDNA, for which the K half with ScAbf2p (ScAbf2noMP) [4] was 30 nM; in data set [5], 120 nM.

B1: 15 bp atp9 dsDNA (dsDNA)
DNA 1: GGAGCAGGTATTGGT
DNA 2: ACCAATACCTGCTCC
B1: the binding result in the data set with ScAbf2p (ScAbf2noMP) [6] and with CpGcf1p (CpGcf1noMP) [7] (5' end of S6) was “no binding” throughout.

B2: 25 bp atp9 dsDNA (dsDNA)
DNA 1: GGAGCAGGTATTGGTATTGCTATCG
DNA 2: CGATAGCAATACCAATACCTGCTCC
With B2, the binding result is reported as “no binding” with CpGcf1p (CpGcf1noMP) [7] (5' end of S8) and “binds” in the data set with ScAbf2p (ScAbf2noMP) [8].
